Assay results as given in publication PMC5549631.
pKd: −log10 of the molar value.

Columns and labels:
[1] = target: recombinant nucleosome labelled with Oregon Green 488 on histone H4 Q27C (Xenopus) (UniProt P62799); assay: other fluorescence titration
[2] = target: acidic patch mutant nucleosome (H2A E61A, E64A, D90, E92A) (Xenopus) (UniProt P06897)
[3] = target: acidic patch mutant nucleosome (H2A E61A, E64A, D90, E92A) (Xenopus) (UniProt P06897); assay: other fluorescence titration

## Set8(153-352) H347F (from UniProt Q9NQR1-2 153-352) (domain or fragment)
[1]
  pKd: 8.35

## Set8(153-352) (from UniProt Q9NQR1-2 153-352) (domain or fragment)
[2]
  histone methyltransferase activity on acidic patch mutant nucleosomes: 5.4%
[3]
  pKd: 5.89
[1]
  pKd: 8.10

## Set8(175-352) (from UniProt Q9NQR1-2 175-352) (domain or fragment)
[1]
  pKd: 5.74

## Set8(153-352) R188A, R189A (from UniProt Q9NQR1-2 153-352) (domain or fragment)
[1]
  pKd: 5.60

## Set8(153-352) R179A, K180A (from UniProt Q9NQR1-2 153-352) (domain or fragment)
[1]
  fold decrease of nucleosome binding affinity against Set8(153-352): 2.5 fold

## full length Set8 (from UniProt Q9NQR1-2 1-352) (enzyme)
[3]
  pKd: 7.22
[1]
  pKd: 8.28
